Measurements as given in PMC10105715.

Target: non-natural gp130:IL-11R:LIFR cytokine receptor complex on Ba/F3-gp130:IL-11R:LIFR cells (UniProt P40189)
Sequence (P40189 23-918, chain 1 of 3): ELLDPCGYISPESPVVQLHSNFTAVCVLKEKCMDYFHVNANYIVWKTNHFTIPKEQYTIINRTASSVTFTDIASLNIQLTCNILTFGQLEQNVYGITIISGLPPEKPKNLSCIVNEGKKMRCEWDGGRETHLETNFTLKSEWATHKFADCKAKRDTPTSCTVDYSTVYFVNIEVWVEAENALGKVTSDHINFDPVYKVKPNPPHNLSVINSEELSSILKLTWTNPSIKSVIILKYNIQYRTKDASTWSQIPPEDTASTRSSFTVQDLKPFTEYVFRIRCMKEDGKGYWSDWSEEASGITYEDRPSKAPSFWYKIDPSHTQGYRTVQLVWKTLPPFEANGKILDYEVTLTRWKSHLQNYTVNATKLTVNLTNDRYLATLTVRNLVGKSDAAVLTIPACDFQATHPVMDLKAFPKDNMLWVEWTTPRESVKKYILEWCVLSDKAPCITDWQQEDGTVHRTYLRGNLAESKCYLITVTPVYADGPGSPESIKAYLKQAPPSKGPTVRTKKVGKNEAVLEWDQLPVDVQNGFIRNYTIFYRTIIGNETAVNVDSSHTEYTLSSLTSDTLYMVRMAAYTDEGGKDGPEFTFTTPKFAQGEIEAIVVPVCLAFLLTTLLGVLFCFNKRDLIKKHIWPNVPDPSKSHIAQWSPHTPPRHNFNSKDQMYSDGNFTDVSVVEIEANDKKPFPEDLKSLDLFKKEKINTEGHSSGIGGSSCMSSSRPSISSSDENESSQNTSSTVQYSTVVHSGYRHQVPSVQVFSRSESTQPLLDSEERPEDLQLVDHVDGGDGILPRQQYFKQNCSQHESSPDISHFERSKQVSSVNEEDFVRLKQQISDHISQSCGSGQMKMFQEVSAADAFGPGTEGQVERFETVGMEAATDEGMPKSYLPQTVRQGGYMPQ
Sequence (Q14626 23-422, chain 2 of 3, further chain): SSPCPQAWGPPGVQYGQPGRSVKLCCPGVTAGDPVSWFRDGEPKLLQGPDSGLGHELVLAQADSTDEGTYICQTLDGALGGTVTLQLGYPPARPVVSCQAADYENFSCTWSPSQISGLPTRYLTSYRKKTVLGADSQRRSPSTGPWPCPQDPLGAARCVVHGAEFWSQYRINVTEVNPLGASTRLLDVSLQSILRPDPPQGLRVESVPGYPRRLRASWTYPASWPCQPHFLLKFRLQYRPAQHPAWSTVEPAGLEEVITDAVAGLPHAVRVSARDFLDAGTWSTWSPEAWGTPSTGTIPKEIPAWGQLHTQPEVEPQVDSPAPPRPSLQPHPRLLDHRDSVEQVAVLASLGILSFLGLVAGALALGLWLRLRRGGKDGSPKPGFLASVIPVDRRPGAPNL
Sequence (P42702 45-1097, chain 3 of 3, further chain): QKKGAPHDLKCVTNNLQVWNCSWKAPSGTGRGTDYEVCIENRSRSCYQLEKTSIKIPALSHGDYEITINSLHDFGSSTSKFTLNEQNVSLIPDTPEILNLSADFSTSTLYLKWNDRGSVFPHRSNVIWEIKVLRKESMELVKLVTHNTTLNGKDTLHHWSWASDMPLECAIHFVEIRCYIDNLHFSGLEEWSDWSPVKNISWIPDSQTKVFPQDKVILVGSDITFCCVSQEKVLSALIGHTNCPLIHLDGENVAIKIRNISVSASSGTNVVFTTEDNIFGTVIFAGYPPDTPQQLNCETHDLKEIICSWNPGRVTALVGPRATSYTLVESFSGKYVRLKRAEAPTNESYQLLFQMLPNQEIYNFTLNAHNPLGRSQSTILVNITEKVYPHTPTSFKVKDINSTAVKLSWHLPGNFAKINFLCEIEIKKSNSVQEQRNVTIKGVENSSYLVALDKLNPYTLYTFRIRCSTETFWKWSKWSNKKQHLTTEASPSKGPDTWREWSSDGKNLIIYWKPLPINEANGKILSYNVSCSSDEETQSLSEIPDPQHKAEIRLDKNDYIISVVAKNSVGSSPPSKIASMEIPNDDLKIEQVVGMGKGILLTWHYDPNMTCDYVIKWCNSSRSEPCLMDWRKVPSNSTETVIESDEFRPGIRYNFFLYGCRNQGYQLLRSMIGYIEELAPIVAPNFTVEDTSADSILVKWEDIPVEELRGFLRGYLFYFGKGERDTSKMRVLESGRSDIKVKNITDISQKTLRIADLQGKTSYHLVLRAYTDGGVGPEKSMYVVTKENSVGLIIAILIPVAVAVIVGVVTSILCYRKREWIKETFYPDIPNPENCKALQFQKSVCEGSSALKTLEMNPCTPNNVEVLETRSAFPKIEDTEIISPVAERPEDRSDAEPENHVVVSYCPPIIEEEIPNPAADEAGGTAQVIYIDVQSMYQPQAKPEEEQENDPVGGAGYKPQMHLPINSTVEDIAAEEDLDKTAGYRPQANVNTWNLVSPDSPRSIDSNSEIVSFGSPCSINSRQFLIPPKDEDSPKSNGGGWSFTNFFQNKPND

“cytokimera GIL-11 (from UniProt P20809 22-57; P15018 64-88; P20809 73-110; P15018 119-138; P20809 129-161; P15018 172-189; P20809 180-199) (ligand)” gave a proliferation of Ba/F3-gp130:IL-11R:LIFR cells (CellTiter Blue), GIL-11 0.0005–500 ng/ml; EC50 of 1.44 ng/mL.
